Columns and labels:
[1] = molecular target: the molecule itself; assay: light scattering; 2 uM GalR diluted from a stock in 1 M NaCl into 50 mM TrisCl pH 8 with 78-1000 mM NaCl (or 25-700 mM Na2SO4 with 78 mM NaCl); 365 nm, stirring, room temperature; dimers to aggregates at low ionic strength
[2] = molecular target: the molecule itself; assay: dynamic light scattering; 6.4 uM GalR^T322R, 20 °C, 250 mM NaCl; monomers to dimer
[3] = molecular target: the molecule itself; assay: negative staining transmission electron microscopy; 3.8 uM GalR, 50 mM Tris:Cl pH 8, 250 mM NaCl unless otherwise stated (GalR^N48I: 150 mM NaCl); flash-frozen, stained with 1% phosphotungstic acid; dimers to ordered aggregates

B1: Gal repressor GalR, wild type (GalR^WT), hexahistidine-tagged (natural protein, Escherichia coli, UniProt P03024 1-343, looked up)
chain: MATIKDVARLAGVSVATVSRVINNSPKASEASRLAVHSAMESLSYHPNANARALAQQTTETVGLVVGDVSDPFFGAMVKAVEQVAYHTGNFLLIGNGYHNEQKERQAIEQLIRHRCAALVVHAKMIPDADLASLMKQMPGMVLINRILPGFENRCIALDDRYGAWLATRHLIQQGHTRIGYLCSNHSISDAEDRLQGYYDALAESGIAANDRLVTFGEPDESGGEQAMTELLGRGRNFTAVACYNDSMAAGAMGVLNDNGIDVPGEISLIGFDDVLVSRYVRPRLTTVRYPIVTMATQAAELALALADNRPLPEITNVFSPTLVRRHSVSTPSLEASHHATSD
notes: GalR, the Gal repressor of Escherichia coli; 37 kDa subunit
[1]
  binding result: binds

B2: GalR^T322R, hexahistidine-tagged (natural protein, Escherichia coli, UniProt P03024 1-343, looked up)
chain: MATIKDVARLAGVSVATVSRVINNSPKASEASRLAVHSAMESLSYHPNANARALAQQTTETVGLVVGDVSDPFFGAMVKAVEQVAYHTGNFLLIGNGYHNEQKERQAIEQLIRHRCAALVVHAKMIPDADLASLMKQMPGMVLINRILPGFENRCIALDDRYGAWLATRHLIQQGHTRIGYLCSNHSISDAEDRLQGYYDALAESGIAANDRLVTFGEPDESGGEQAMTELLGRGRNFTAVACYNDSMAAGAMGVLNDNGIDVPGEISLIGFDDVLVSRYVRPRLTTVRYPIVTMATQAAELALALADNRPLPEITNVFSPRLVRRHSVSTPSLEASHHATSD
notes: GalR of Escherichia coli with T322R; Tetramer formation is strongly impaired in this mutant (cited); also called non-tetramerizing GalR mutant; source: expressed from vector plasmid pSEM1026 under an L-arabinose inducible promoter, purified
[2]
  binding result: binds

B3: GalR^N48I, hexahistidine-tagged (natural protein, Escherichia coli, UniProt P03024 1-343, looked up)
chain: MATIKDVARLAGVSVATVSRVINNSPKASEASRLAVHSAMESLSYHPIANARALAQQTTETVGLVVGDVSDPFFGAMVKAVEQVAYHTGNFLLIGNGYHNEQKERQAIEQLIRHRCAALVVHAKMIPDADLASLMKQMPGMVLINRILPGFENRCIALDDRYGAWLATRHLIQQGHTRIGYLCSNHSISDAEDRLQGYYDALAESGIAANDRLVTFGEPDESGGEQAMTELLGRGRNFTAVACYNDSMAAGAMGVLNDNGIDVPGEISLIGFDDVLVSRYVRPRLTTVRYPIVTMATQAAELALALADNRPLPEITNVFSPTLVRRHSVSTPSLEASHHATSD
notes: GalR of Escherichia coli with N48I; source: expressed from vector plasmid pSEM1026 under an L-arabinose inducible promoter, purified
[3]
  binding result: binds

— PMC4899725, “The transcriptional regulator GalR self-assembles to form highly regular tubular structures” (Scientific Reports, 2016)
